Source: paper doi:10.1101/2023.05.23.541938

Molecular target: TgPKS2 thioester reductase domain (TgTR) (Toxoplasma gondii)
Test: ITC

holo-TgACP4 (domain or fragment)
Kd: 5.75 µM
